From IntAct's records for PubMed 18250304

B1: Endothelial transcription factor GATA-2 (Homo sapiens), P23769 (parent)
chain: MEVAPEQPRWMAHPAVLNAQHPDSHHPGLAHNYMEPAQLLPPDEVDVFFNHLDSQGNPYYANPAHARARVSYSPAHARLTGGQMCRPHLLHSPGLPWLDGGKAALSAAAAHHHNPWTVSPFSKTPLHPSAAGGPGGPLSVYPGAGGGSGGGSGSSVASLTPTAAHSGSHLFGFPPTPPKEVSPDPSTTGAASPASSSAGGSAARGEDKDGVKYQVSLTESMKMESGSPLRPGLATMGTQPATHHPIPTYPSYVPAAAHDYSSGLFHPGGFLGGPASSFTPKQRSKARSCSEGRECVNCGATATPLWRRDGTGHYLCNACGLYHKMNGQNRPLIKPKRRLSAARRAGTCCANCQTTTTTLWRRNANGDPVCNACGLYYKLHNVNRPLTMKKEGIQTRNRKMSNKSKKSKKGAECFEELSKCMQEKSSPFSAAALAGHMAPVGHLPPFSHSGHILPTPTPIHPSSSLSFGHPHPSSMVTAMG

Variants of: B1
Details: with cbp_human CREBBP

Q: For L359V, which “effect of a mutation on the interaction” value is on record?
A: increasing interaction
